# The DeepSol protein solubility set
# Test: soluble on expression in E. coli; label from the status in PepcDB or PDB records
row,Sequence,soluble on expression in E. coli
1,MSYNSIRLPQDLPIYYKNFFPVKPFTKWLCYGQNYGDYFNRREFTFILADDVHIRYRSYNDEHSFVKALSSTNPEKLDIGAVYNHEPINNKRYTDYQAVERELVFDIDLTDYDPVRNCCKDATVCPKCWKFMVLAVRILDFQLEEMFNFKARMWVFSGRRGVHCWVGDKKARMLNNNQRSAIATRLNLFKKNGQCEVTEGRAKLTRVPPTVRDAFNVALKDGVFEKMIYEQGWLDNDRFIIDYQYMSEFGRDDLRRISESFKTPQERWHMLRGLFDNDYRKTLSQNDGLLDFVNNARSRPKKVLLYFVLQRCYPRLDANVTTGTNHLLKSPFCIHPKTGNVAVPLNVEKIGEFDVSKCPRIDHVVEELSSLLTERGNDGDEDSKNRKFLAYKHGALSPYVENFEMFVSACIS,not soluble
2,TEETNVLVLCAGGGTSGLLANALNKAAEEYGAPVKAAAGSYGAHREILDQYQLVILAPQVASNYEDMKAETDKLGIKLAKTEGAQYIGLTRDGKGALAFVEEQFKD,not soluble
3,MGSDKIHHHHHHAYFFNVAFVPGQKSVLNKYSSKKKKDPFAQNKKWYADAKKEQWYIKSASSNYCLDANYIPKKNSHKTAVLLHGFMNNKDTMAPYAAMFHQLGYNVLIPDARAHGKSQGKYIGYGWPEKYDVQKWVKKDIAEKGKKQKIVIFGVSMGGATTMMTSGLKMPKQVKAYIEDCGYTDVKSEFLYEAKDIYKMPKLVASSAVAILSGVSKANLGFYLGDASAVNQLKKNKLPMMFIHGSKDNFVPTKMVYQNYKATNGPKELWIAEKAAHARSFETYPREYKARVSKFLNKYV,not soluble
4,MKTRINYAKASPEAFKAVMALENYVQSSGLEHRFIHLIKLRASIINGCAFCVDMHVKESRHDGLSEQWINLMSVWRESPVYTEQERALLGWVDAVTKIAETGAPDDAFETLRAHFSDEEIVKITVAIGAINTWNRIAVGFRSQHPVEAAAKAA,soluble
5,MSSSSSSEDELEKKVTKEQKKKETKSKKRQSEAVEEEKQEVKKAKNEEEVSGRLKDSDGNEMFEIGNLRYATVSKFKGKEYVNIREYYIDRDSQKMMPSRKGISLSKAQWANLKDLIPEIDKKF,soluble
6,MGSDKIHHHHHHMENSKVSLKIDVLVAEIGSTTTVVNAFHDINTNNPIFLGQGQAPTTVFEGGDVRNGLSGAIKDLANKLSVDDIEYNDMFATSSAAGGLKMTVHGLVYDMTVKAAKEAALGAGAVIRQITSGRIKRTDLNKIKEINPNIILIAGGVDYGERDTAIYNAEMIASMNLGIPVIYAGNVENQEEIRLIFEDTNYKLYITENVYPKIDLLNIEPTRRIIQSVFEEHITTAPGMKYIKEMVNENITPTPGAVMEASKLLYKNIGDLLTLDVGGATTDVHSVTDGSDYINKILVNPEPTAKRSVEGDLGVYVNMKNIVEVIGKENLQSELSIDIDAVIENYPPIPKSKEEILFVERLTKEAVVKAMLRHSGKIRNIYGTTGKVKIAEGKDLTEVRYIVGTGGALTRLPSRIEILDNMLKYNKNNELLFPKEKTKILIDNDYIMASMGVLSKKYEEASLKLLLKSLNFEEERLCILG,not soluble
7,MGKDSKKHKKERRRERSPSTSDSDEERLQKRLAEQRSLKKDEKRRQKEEMKKNESAEEKRARRMEKKMRKDAKRKDADAEDTLIPPELNYTNLNNPFNDTKLTQTFVWGKKLEREGKSGLTQDEITKQTSQRIRKNLHEAAEFKRIRDSRAAAKEDMEMMKRDADLRAGQISDTKEREFQMDQIKERTRIRIDQGRAKAIDLLSRYARFADENPHTAKIPDFELENPMEYLKASCKSVDDYEDLIEDIKTYREVDGWAKNETWWMDVTRIAEDEIQKKAAQNRGDVHASVQTEVQNMFKNKSIDELLKLEDQMDAKIRGNSGNKGYWQDLDDQLKVFIARKRLREHHGRVLRLQLAIIKEEQKKEIQQQESEELLPVAEVPPQVKIQKEEEEEEEEDEDDEKISKKVRRKIDVQTLDDPELDEPERERKWRALTGDQLDDVTRELYRIGCYRFSIFFLAEKPPTYISADDTMPGIEILDEQADVDNLTERRNRNRGTLPSSSAASSGAPQGASSKMMAIAREGMEADESIFGAEEQLAAQRHLWSDKYRPRKPTYLNRVQTGFDWNKYNQTHYDQDNPPPKIVQGYKFNIFYPDLLDMTVAPRFGLTSCEDPDFAIIRFKAGPPYEDIAFKVVNREWETLHKNGYKCQFQNGVFQLWFMFKKYRYRR,soluble
8,MGHHHHHHSHMVEFPLPPHLTCAVIKAASLDCEDLLLPIAAMLSVENVFIRPVDPEYQKEAEQRHRELAAKAGGFNDFATLAVIFEQCKSSGAPASWCQKHWIHWRCLFSAFRVEAQLRELIRKLKQQSDFPKETFEGPKHEVLRRCLCAGYFKNVARRSVGRTFCTMDGRGSPVHIHPSSALHEQETKLEWIIFHEVLVTTKVYARIVCPIRYEWVRDLLPKLHEFNAHDLSSVARREVREDARRRWTNKENVKQLKDGISKDVLKKMQRRNDDKSISDARARFLERKQQRTQDHSDTRKETG,not soluble
9,MKKVTAMLFSMAVGLNAVSMAAKAKASEEQETDVLLIGGGIMSATLGTYLRELEPEWSMTMVERLEGVAQESSNGWNNAGTGHSALMELNYTPQNADGSISIEKAVAINEAFQISRQFWAHQVERGVLRTPRSFINTVPHMSFVWGEDNVNFLRARYAALQQSSLFRGMRYSEDHAQIKEWAPLVMEGRDPQQKVAATRTEIGTDVNYGEITRQLIASLQKKSNFSLQLSSEVRALKRNDDNTWTVTVADLKNGTAQNIRAKFVFIGAGGAALKLLQESGIPEAKDYAGFPVGGQFLVSENPDVVNHHLAKVYGKASVGAPPMSVPHIDTRVLDGKRVVLFGPFATFSTKFLKNGSLWDLMSSTTTSNVMPMMHVGLDNFDLVKYLVSQVMLSEEDRFEALKEYYPQAKKEDWRLWQAGQRVQIIKRDAEKGGVLRLGTEVVSDQQGTIAALLGASPGASTAAPIMLNLLEKVFGDRVSSPQWQATLKAIVPSYGRKLNGDVAATERELQYTSEVLGLNYDKPQAADSTPKPQLKPQPVQKEVADIAL,not soluble
10,MSVIKLKSKLKYCHYAYDDEGYVIHMLTSNERTFFTNAYIIETKNSIVVVDTLMVNSDAILLRQYMDNINKPLIAVIITHGHPDHYNGTEIITGFKEVPIISTKGIRDCIQDTVDSKEVKWKPYFGQDWPEHKILPNQLVIDSEVVNLDGLDYSFRDLGAAESSSDLFFTLGEKRSVIFVGDVVFNNMHGFMNDGNSAQWLKVLQKLLTEIADVKLLFTGHGDPGDTHQLVQRQIDYISHYRSNLLAIIRGNQLEHHHHHH,not soluble
11,MGSDKIHHHHHHMGKAMDLPAETREAANNVIKMQRDADWQNDFKKNSDDGIKTQSLYNIRLIMEHDEMLKGLVAFDEFSEQIVKTPQAENSLFKKGFWNDGDDTLLRSYIEDHYNLLFSKENITDAVVTEARRKTINPVKARIEAVEWDGQPRAERYFINYLGAEDNHYTRTITKKWLTGLIARAYVPGVKFEIVPILEGSQGLGKSTAGKNLYPDKFNDSLKGMGKQKDDYQQLQGSWIIEVAELSAMKKTDIEGIKNFISAQSDTYRNSYGRYALPHPRKCVFIGTTNQTDYLKDATGERRFYPIKCGVNKAKLDVWHPDENYMLQVLAEAAYWFKNGEPLYLDQATMKEAKAYQMAAEAVDPMRDAIEAFLAMEVPTDWENMSTSLKQSYVSDYGHHSKWLQDQVSNERKLLNQTTTREIMEVVFHKTVDRYLTGRTNSEAKRIKLLMDNMDGWKSQRIRMNGQRLHGYMREV,not soluble
12,MGSDKIHHHHHHMSEPVIKSLLDTDMYKITMHAAVFTNFPDVTVTYKYTNRSSQLTFNKEAINWLKEQFSYLGNLRFTEEEIEYLKQEIPYLPSAYIKYISSSNYKLHPEEQISFTSEEIEGKPTHYKLKILVSGSWKDTILYEIPLLSLISEAYFKFVDIDWDYENQLEQAEKKAETLFDNGIRFSEFGTRRRRSLKAQDLIMQGIMKAVNGNPDRNKSLLLGTSNILFAKKYGVKPIGTVAHEWVMGVASISEDYLHANKNAMDCWINTFGAKNAGLALTDTFGTDDFLKSFRPPYSDAYVGVRQDSGDPVEYTKKISHHYHDVLKLPKFSKIICYSDSLNVEKAITYSHAAKENGMLATFGIGTNFTNDFRKKSEPQVKSEPLNIVIKLLEVNGNHAIKISDNLGKNMGDPATVKRVKEELGYTERSWSGDNEAHRWT,soluble
13,MGADGGTIPKRCELVKERKKKEKLDKHVKNATKWRNCQLTQLPLKRPVIACRFGKLYNKEDVINSILSKTISKSASASHIKGPKDFVELKLTLNKDFKRGDVKGDDYNDVNQTEFICPITNVPMNGIQSFLVNWQCGCVYSEKAQQEVKSSNCHVCGGPYDATKMVILNPEPEQLELYKLKWEAEKAEKAAAKKDKAKKTAEKMEAAASLAAGSGGEASSVAPGPSGSGVGKHVDLKKKLEIAKLTGGSTSEKKAEKRKANTDIQSDPTTSDTYKKLFTTCEAAKNKTEGHWVTYNPLYY,soluble
14,MIKTDLNDFAWFVHVVEEGGFAAAGRALDEPKSKLSRRIAQLEERLGVRLIQRTTRQFNVTEVGQTFYEHCKAMLVEAQAAQDAIAALQVEPRGIVKLTCPVTLLHVHIGPMLAKFMARYPDVSLQLEATNRRVDVVGEGVDVAIRVRPRPFEDSDLVMRVLADRGHRLFASPDLIARMGIPSAPAELSHWPGLSLASGKHIHRWELYGPQGARAEVHFTPRMITTDMLALREAAMAGVGLVQLPVLMVKEQLAAGELVAVLEEWEPRREVIHAVFPSRRGLLPSVRALVDFLTEEYARMVEE,not soluble
15,MSLEIIPVIDLMNGLAVSGKSGNRKEYVPIKSVLCDSSDPHDVIKKYNENGAKKVYIADLNSIMGTGNNFEIVKSLDIFKIVDFGVTDKKDLENVKKCVNMTILGTETLNDISILKEGNIILSLDFKDGKLLNYDLDDILSKVDKKTPLIILDISSVGTQKGINVELIKDILKKTDNPIYIGGGIKSEDDLKISKELGISGVLIGTTIHNGKLDLKKIIQKYGEGHHHHHH,soluble
16,MINFEATELRLGLPGGNHGGEMAGKNNGKRGFSETVDLKLNLSSTAMDSVSKVDLENMKEKVVKPPAKAQVVGWPPVRSFRKNVMSGQKPTTGDATEGNDKTSGSSGATSSASACATVAYVKVSMDGAPYLRKIDLKLYKTYQDLSNALSKMFSSFTIGNYGPQGMKDFMNESKLIDLLNGSDYVPTYEDKDGDWMLVGDVPWEMFVDSCKRIRIMKGSEAIGLAPRALEKCKNRS,soluble
17,MNGGGKNVLNKNSVGSVSEVGPDSTQEETPRDVRLLHLLLASQSIHQYEDQVPLQLMDFAHRYTQGVLKDALVYNDYAGSGNSAGSGLGVEDIRLAIAARTQYQFKPTAPKELMLQLAAERNKKALPQVMGTWGVRLPPEKYCLTAKEWDLEDPKSM,not soluble
18,MAHHHHHHMMRWAVDVTGIDVAEDLEREQRKCVYKVPRAANGESWHAVDDWRANASEYNDELGKVWALTRDEVQDAIAERALTANALFCNVGRTLAGALQRQGSITIAAGCASQLRGSCGRGLQWDGLLSNTQSIVSNDFACDAVPSTREVRVFSTFLNAEGKRMTVTVNMTQPTYRGVDVVAAFLQQAVATNESLSQRYSTNPRLYKLFIADEDTGEEEMAAQLDLGAQNFSCYAVNPMPAAKLFLFPQRTALLNTTTRDVNLTVQVRPLDPQAKAVQRQCVVPADMLAESLEATICSRLPASGIIQGSLRIMHGPMELNINEYYNFGAGCGQPNCPIAERTVLSLFRFGVREVVVNGRAVEEAPTEVLRDLTEDIIIDMGVDEAVSFQQFEVICINKYGARQQRLLCVDGEHLYTMRPNASEALPKTTERTIKDIEEVRIFADKPKYMEIAYTKSSHFEEDHFECTTTYNCALLNEKIRIVRRELRKREAEEQAASVKNETAMQRFMTGIRSRWFGGALQS,not soluble
19,AFMQDRLKIMRQQNPAASLQHQWVDYEQISSHLKRAVIAAEDARFLQHQGFDYKAIETAWKKNLKQRKWAAGGSTISQQLAKNLFLSTEKTVWRKSRETLITLMLEEFLTKRRILEIYLNIIEWGDGIFGIEAAARHYFGISAASLTPAQAAWLASIIPNPRFYDTRRTLPKLLNKSRIILSRLPAAKIP,not soluble
